Results reported in publication PMC4553094 (Thrombosis research, 2015).

B1: Recombinant wild-type monomeric VWF A3 domain (residues 1687-1874) (domain or fragment)
chain: SQPLDVILLLDGSSSFPASYFDEMKSFAKAFISKANIGPRLTQVSVLQYGSITTIDVPWNVVPEKAHLLSLVDVMQREGGPSQIGDALGFAVRYLTSEMHGARPGASKAVVILVTDVSVDSVDAAADAARSNRVTVFPIGIGDRYDAAQLRILAGPAGDSNVVKLQRIEDLPTMVTLGNSFLHKLCSG

How the values were obtained:
[1] = molecular target: Glycoprotein Ib-IX complex captured from platelet lysates (human (endogenous in platelets)) (UniProt P07359); assay: biomembrane force probe
[2] = molecular target: T1, Human placenta type III collagen (human, UniProt P02461 154-1221, covalently modified with maleimide-PEG3500-NHS for coupling to beads); assay: biomembrane force probe
T1 sequence (looked up): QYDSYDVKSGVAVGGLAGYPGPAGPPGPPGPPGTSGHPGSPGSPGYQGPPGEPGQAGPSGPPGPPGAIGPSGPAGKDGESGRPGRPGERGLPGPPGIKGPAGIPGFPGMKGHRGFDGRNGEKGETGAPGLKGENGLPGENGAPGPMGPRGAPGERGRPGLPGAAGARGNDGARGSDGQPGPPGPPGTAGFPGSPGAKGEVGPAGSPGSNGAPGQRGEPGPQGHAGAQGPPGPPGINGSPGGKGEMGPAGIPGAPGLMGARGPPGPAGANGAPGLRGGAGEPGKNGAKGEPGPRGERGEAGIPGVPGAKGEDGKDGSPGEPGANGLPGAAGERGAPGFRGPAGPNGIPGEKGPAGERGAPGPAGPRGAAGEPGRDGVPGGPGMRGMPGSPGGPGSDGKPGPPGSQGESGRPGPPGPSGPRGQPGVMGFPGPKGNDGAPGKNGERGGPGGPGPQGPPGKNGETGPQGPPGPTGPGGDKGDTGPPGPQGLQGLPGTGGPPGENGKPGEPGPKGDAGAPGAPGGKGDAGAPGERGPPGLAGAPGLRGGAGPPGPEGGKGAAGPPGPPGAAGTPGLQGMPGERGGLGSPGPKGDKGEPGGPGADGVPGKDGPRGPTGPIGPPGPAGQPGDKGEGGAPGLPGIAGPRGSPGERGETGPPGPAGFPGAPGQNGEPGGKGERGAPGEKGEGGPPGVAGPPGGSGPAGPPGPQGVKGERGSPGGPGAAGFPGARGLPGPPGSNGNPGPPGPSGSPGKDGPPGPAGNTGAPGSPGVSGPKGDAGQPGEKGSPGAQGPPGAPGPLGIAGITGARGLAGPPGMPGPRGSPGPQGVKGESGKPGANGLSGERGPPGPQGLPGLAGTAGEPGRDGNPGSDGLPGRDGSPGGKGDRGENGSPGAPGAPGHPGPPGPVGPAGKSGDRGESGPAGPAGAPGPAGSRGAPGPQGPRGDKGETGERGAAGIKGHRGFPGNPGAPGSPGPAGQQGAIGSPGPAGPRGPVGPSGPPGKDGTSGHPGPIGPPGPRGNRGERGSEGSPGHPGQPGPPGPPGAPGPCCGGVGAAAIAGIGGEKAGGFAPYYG

Molecule	bond lifetime at the peak force [1]	affinity to collagen relative to that of A1 [2]
Recombinant wild-type monomeric VWF 1238-A1 (residues 1238-1471) (from UniProt P04275 1238-1471) (domain or fragment)	1.5 s	–
Plasma von Willebrand factor (from UniProt P04275 764-2813) (natural protein)	3.1 s	–
B1	–	10 times
